The values that follow come from article PMC12440825, “SNARE disassembly requires Sec18/NSF side loading” (Nature Structural & Molecular Biology, 2025).

The chains are these.
B3: Sec9 (401–651) (domain or fragment, S. cerevisiae, UniProt P40357 401-651, looked up)
chain: QRGYKTFEEIQKEEEARQQQEEDEAVDEIKQEIKFTKQSSVASTRNTLKMAQDAERAGMNTLGMLGHQSEQLNNVEGNLDLMKVQNKVADEKVAELKKLNRSILAVHVSNPFNSKRRRREREEQLKNRKIEEKLMREQTSQQLSQSTQRIEGAMNANNNISEVRERYQRKNVLEKAKRYQFENDEEDDEMELEIDRNLDQIQQVSNRLKKMALTTGKELDSQQKRLNNIEESTDDLDINLHMNTNRLAGIR
notes: Sec9, S. cerevisiae SNAP25-like SNARE, residues 401-651; source: E. coli BL21(DE3), purified (Ni-NTA, TEV, MonoS, SEC); not shown: His6, N-terminal, cleaved
B4: Sec18 (recombinant, complete coding sequence) (enzyme, S. cerevisiae, UniProt P18759 1-758, looked up)
chain: MFKIPGFGKAAANHTPPDMTNMDTRTRHLKVSNCPNNSYALANVAAVSPNDFPNNIYIIIDNLFVFTTRHSNDIPPGTIGFNGNQRTWGGWSLNQDVQAKAFDLFKYSGKQSYLGSIDIDISFRARGKAVSTVFDQDELAKQFVRCYESQIFSPTQYLIMEFQGHFFDLKIRNVQAIDLGDIEPTSAVATGIETKGILTKQTQINFFKGRDGLVNLKSSNSLRPRSNAVIRPDFKFEDLGVGGLDKEFTKIFRRAFASRIFPPSVIEKLGISHVKGLLLYGPPGTGKTLIARKIGTMLNAKEPKIVNGPEILSKYVGSSEENIRNLFKDAEAEYRAKGEESSLHIIIFDELDSVFKQRGSRGDGTGVGDNVVNQLLAKMDGVDQLNNILVIGMTNRKDLIDSALLRPGRFEVQVEIHLPDEKGRLQIFDIQTKKMRENNMMSDDVNLAELAALTKNFSGAEIEGLVKSASSFAINKTVNIGKGATKLNTKDIAKLKVTREDFLNALNDVTPAFGISEEDLKTCVEGGMMLYSERVNSILKNGARYVRQVRESDKSRLVSLLIHGPAGSGKTALAAEIALKSGFPFIRLISPNELSGMSESAKIAYIDNTFRDAYKSPLNILVIDSLETLVDWVPIGPRFSNNILQMLKVALKRKPPQDRRLLIMTTTSAYSVLQQMDILSCFDNEIAVPNMTNLDELNNVMIESNFLDDAGRVKVINELSRSCPNFNVGIKKTLTNIETARHDEDPVNELVELMTQSA
notes: Hexamer in the y20S complex; heptamer or split hexamer with ATP and Mg2+; No TEV cleavage is described for the preparation used for y20S; also called wild-type Sec18; substrate-free Sec18; source: E. coli BL21(DE3), purified (Ni-NTA, SEC)
B5: Sso1 (1–265) (domain or fragment, S. cerevisiae, UniProt P32867 1-265, looked up)
chain: MSYNNPYQLETPFEESYELDEGSSAIGAEGHDFVGFMNKISQINRDLDKYDHTINQVDSLHKRLLTEVNEEQASHLRHSLDNFVAQATDLQFKLKNEIKSAQRDGIHDTNKQAQAENSRQRFLKLIQDYRIVDSNYKEENKEQAKRQYMIIQPEATEDEVEAAISDVGGQQIFSQALLNANRRGEAKTALAEVQARHQELLKLEKSMAELTQLFNDMEELVIEQQENVDVIDKNVEDAQLDVEQGVGHTDKAVKSARKARKNKIR
notes: Sso1, S. cerevisiae syntaxin-like SNARE, residues 1-265 (Habc domain, linker, SNARE domain; no transmembrane domain); also called SNARE Sso1; source: E. coli BL21(DE3), purified (Ni-NTA, TEV, ion exchange, SEC); not shown: His6, N-terminal, cleaved

Data set [1] concerns the target B5. Description: cryo-EM structure; y20S complex in the nonhydrolyzing condition: preformed ySNARE complex + Sec17 + EDTA-quenched Sec18 (Sec18:SNARE:Sec17 1:1.67:10) in 50 mM Tris, 150 mM NaCl, 1 mM TCEP, 1 mM ATP, 1 mM EDTA pH 8, Superose 6; eight 3D classes. To be noted: both partners purified.
Data set [2] concerns the target B3. Described as above. To be noted: both partners purified.
Data set [3] deals with the molecule itself. Description: cryo-EM structure; substrate-free NSF in the hydrolyzing condition: buffer with ATP and 1 mM MgCl2 instead of EDTA, final SEC; four classes, 3DVA of class 3.
Data set [4] deals with the molecule itself. The data set is described as follows: cryo-EM structure; y20S complex in the hydrolyzing condition: as nonhydrolyzing, excess MgCl2 added on the grid, 7 s before vitrification; classes 1-4.
Data set [5] concerns the molecule itself. The data set is described as follows: cryo-EM structure; y20S complex in the nonhydrolyzing condition: preformed ySNARE complex + Sec17 + EDTA-quenched Sec18 (Sec18:SNARE:Sec17 1:1.67:10) in 50 mM Tris, 150 mM NaCl, 1 mM TCEP, 1 mM ATP, 1 mM EDTA pH 8, Superose 6; eight 3D classes.
In data set [6] the target is B4. Description: cryo-EM structure; y20S complex in the hydrolyzing condition: as nonhydrolyzing, excess MgCl2 added on the grid, 7 s before vitrification; classes 1-4. To be noted: both partners purified.
Data set [7] deals with T1, yeast exocytic SNARE complex Sso1–Sec9–Snc1 (S. cerevisiae, UniProt P32867 1-265; P40357 401-651; P31109 1-93).
T1 construct: Sso1, S. cerevisiae, residues 1-265; as m4; Sec9, S. cerevisiae, residues 401-651; as m5; Snc1, S. cerevisiae, residues 1-93; as m6; also called ySNARE complex; yeast exocytic complex; source: E. coli BL21(DE3), each SNARE purified, mixed 1:1:1 in 6 M GdHCl, dialysed, purified (MonoQ); not shown: His6, N-terminal, cleaved; copies: 1 + 1 + 1
T1 sequence (looked up) 1: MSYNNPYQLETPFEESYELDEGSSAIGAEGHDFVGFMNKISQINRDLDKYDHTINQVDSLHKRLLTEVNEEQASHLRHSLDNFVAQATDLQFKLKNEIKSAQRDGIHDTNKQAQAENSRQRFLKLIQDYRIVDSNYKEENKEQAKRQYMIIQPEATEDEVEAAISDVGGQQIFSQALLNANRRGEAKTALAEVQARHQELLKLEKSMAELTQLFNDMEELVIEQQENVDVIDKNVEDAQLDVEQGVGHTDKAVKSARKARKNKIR
T1 sequence (looked up) 2: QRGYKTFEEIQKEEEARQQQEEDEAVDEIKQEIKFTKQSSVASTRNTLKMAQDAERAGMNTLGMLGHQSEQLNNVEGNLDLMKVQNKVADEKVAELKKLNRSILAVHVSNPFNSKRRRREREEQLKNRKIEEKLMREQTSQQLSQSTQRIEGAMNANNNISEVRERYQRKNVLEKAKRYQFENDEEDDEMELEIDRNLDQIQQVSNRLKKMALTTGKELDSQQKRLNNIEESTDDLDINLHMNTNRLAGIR
T1 sequence (looked up) 3: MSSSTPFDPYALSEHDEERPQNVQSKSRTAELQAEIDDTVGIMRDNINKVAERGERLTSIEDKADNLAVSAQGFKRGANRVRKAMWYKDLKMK
The data set is described as follows: cryo-EM structure; y20S complex in the nonhydrolyzing condition: preformed ySNARE complex + Sec17 + EDTA-quenched Sec18 (Sec18:SNARE:Sec17 1:1.67:10) in 50 mM Tris, 150 mM NaCl, 1 mM TCEP, 1 mM ATP, 1 mM EDTA pH 8, Superose 6; eight 3D classes. The settings on record: both partners purified.

B1: Snc1 (1–93) (domain or fragment, S. cerevisiae, UniProt P31109 1-93, looked up)
chain: MSSSTPFDPYALSEHDEERPQNVQSKSRTAELQAEIDDTVGIMRDNINKVAERGERLTSIEDKADNLAVSAQGFKRGANRVRKAMWYKDLKMK
notes: Snc1, S. cerevisiae synaptobrevin-like SNARE, residues 1-93; source: E. coli BL21(DE3), purified (Ni-NTA, TEV, ion exchange, SEC); not shown: His6, N-terminal, cleaved
With B1, the binding result in data set [1] and in data set [2] was “binds” each time.

B2: NSF (N-ethylmaleimide-sensitive factor) (enzyme, C. griseus)
chain: MAGRSMQAARCPTDELSLSNCAVVSEKDYQSGQHVIVRTSPNHKYIFTLRTHPSVVPGSVAFSLPQRKWAGLSIGQEIEVALYSFDKAKQCIGTMTIEIDFLQKKNIDSNPYDTDKMAAEFIQQFNNQAFSVGQQLVFSFNDKLFGLLVKDIEAMDPSILKGEPASGKRQKIEVGLVVGNSQVAFEKAENSSLNLIGKAKTKENRQSIINPDWNFEKMGIGGLDKEFSDIFRRAFASRVFPPEIVEQMGCKHVKGILLYGPPGCGKTLLARQIGKMLNAREPKVVNGPEILNKYVGESEANIRKLFADAEEEQRRLGANSGLHIIIFDEIDAICKQRGSMAGSTGVHDTVVNQLLSKIDGVEQLNNILVIGMTNRPDLIDEALLRPGRLEVKMEIGLPDEKGRLQILHIHTARMRGHQLLSADVDIKELAVETKNFSGAELEGLVRAAQSTAMNRHIKASTKVEVDMEKAESLQVTRGDFLASLENDIKPAFGTNQEDYASYIMNGIIKWGDPVTRVLDDGELLVQQTKNSDRTPLVSVLLEGPPHSGKTALAAKIAEESNFPFIKICSPDKMIGFSETAKCQAMKKIFDDAYKSQLSCVVVDDIERLLDYVPIGPRFSNLVLQALLVLLKKAPPQGRKLLIIGTTSRKDVLQEMEMLNAFSTTIHVPNIATGEQLLEALELLGNFKDKERTTIAQQVKGKKVWIGIKKLLMLIEMSLQMDPEYRVRKFLALLREEGASPLDFD
notes: Heptamer (class 1) or hexamer (classes 2-4) with ATP and Mg2+; also called substrate-free NSF; high-purity NSF
One may read the stoichiometry N as the number of molecules, sites or subunits per partner or assembly. B2: the “stoichiometry N” value in data set [3] is 7.
Turning to B3, the binding result in data set [1] is “binds”.
For the molecule B4, the “stoichiometry N” value came to 7 in data set [4] and 6 in data set [5].
For B5, the binding result in data set [6] was “binds”.

B6: Sec17 (natural protein, S. cerevisiae, UniProt P32602 1-292, looked up)
chain: MSDPVELLKRAEKKGVPSSGFMKLFSGSDSYKFEEAADLCVQAATIYRLRKELNLAGDSFLKAADYQKKAGNEDEAGNTYVEAYKCFKSGGNSVNAVDSLENAIQIFTHRGQFRRGANFKFELGEILENDLHDYAKAIDCYELAGEWYAQDQSVALSNKCFIKCADLKALDGQYIEASDIYSKLIKSSMGNRLSQWSLKDYFLKKGLCQLAATDAVAAARTLQEGQSEDPNFADSRESNFLKSLIDAVNEGDSEQLSEHCKEFDNFMRLDKWKITILNKIKESIQQQEDDLL
notes: also called Sec17/α-SNAP; adaptor Sec17; source: E. coli BL21(DE3), purified (Ni-NTA, TEV, MonoQ, SEC); not shown: His10, N-terminal, cleaved
Turning to B6, the binding result in data set [6] and in data set [7] was “binds” throughout.
